From US20120014941A1 (Hoffmann-La Roche, published 2012)
Substitutions are numbered along the chain they refer to. Numbers in names are those of the source. Read-outs that look alike come from different tables or passages of the source. Each block holds one binder with its values, some of them ahead of it.

Assays:
[1] = molecular target: Cynomologus Monkey Bv8 (Genentech; PUR21590) (cynomolgus monkey); assay: SPR (BIAcore 3000, 25 C): cynomolgus monkey Bv8 coupled to CM5 chip, IgG injected; 1:1 Langmuir fit
[2] = molecular target: T1, recombinant human Bv8 (PeproTech) (human, UniProt Q9HC23-2 28-108, biotinylated (Sulfo-NHS-LC-biotin) in the two competition ELISAs with coated antibody); assay: SPR (BIAcore 3000, 25 C): human Bv8 coupled to CM5 chip, IgG injected; 1:1 Langmuir fit
T1 construct: Bought protein; also called HuBv8; prokineticin-2
T1 sequence (looked up): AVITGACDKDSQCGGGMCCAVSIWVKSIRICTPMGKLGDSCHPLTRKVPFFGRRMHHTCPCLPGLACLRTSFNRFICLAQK
Description: (§1) For binding affinity determinations of anti-Bv8 antibodies (Fab or IgG), Surface Plasmon Resonance (SRP) measurement with a BIAcore™-3000 instrument was used. Briefly, CM5 biosensor chip was activated with EDC and NHS reagents according to the supplier's instructions, and human Bv8 (PeproTech) or Cynomologus Monkey (Genentech; PUR21590) was coupled to achieve approximately 150 response units (RU), then following by blocking un-reacted groups with 1M ethanolamine. For kinetics measurements, two-fold serial dilutions of anti-Bv8 Fabs (0.19 nM to 25 nM) or IgGs (0.019 nM to 10 nM) were injected in HBS-P buffer (0.01M HEPES pH 7.4, 0.15M NaCl, 0.005% surfactant P20) at 25° C. with a flow rate of 30 μl/min. Association rates (kₒₙ) and dissociation rates (koff) were calculated using a simple one-to-one Langmuir binding model (BIAcore Evaluation Software version 3.2). The equilibrium dissociation constant (Kd) was calculated as the ratio koff/kₒₙ.

[3] = molecular target: T1, recombinant human Bv8 (PeproTech); assay: competitive ELISA: antibody in serial dilution mixed with biotinylated human Bv8 (57 pM) and put on plate coated with mouse 2G9 IgG1 (m5, the competitor); streptavidin-HRP, OD 450/620; four-parameter fit
Protocol: Maxisorp 384 well plates were coated with 1 μg/ml parent mouse 2G9 IgG1 antibody at 25 μl/well in 50 mM sodium carbonate buffer, pH 9.6, at 4° C. overnight. Plates were washed with phosphate buffered saline (PBS) containing 0.05% polysorbate, pH 7.4 and blocked with PBS containing 0.5% BSA, 10 ppm Proclin, pH 7.4, at 80 μL1/well. After one-hour incubation at room temperature, plates were washed. A mixture of serially diluted humanized 2G9 antibodies (0.11 pM-180 nM) in PBS containing 0.5% BSA, 0.05% polysorbate 20, pH 7.4 and biotinylated human Bv8 (final concentration 0.5 ng/ml or 57 pM) were added at 25 μL1/well. After two hour incubation, plates were washed and horseradish peroxidase conjugated streptavidin (GE Healthcare) was added. After a final 30 minute incubation, plates were washed and the substrate 3,3′,5,5′-tetramethyl benzidine (Kirkegaard & Perry Laboratories) was added. The reaction was stopped by adding 1 M phosphoric acid and absorbance was read at 450 nm on a Multiskan Ascent reader (Thermo Scientific, Hudson, N.H.). For data analysis, the titration curves were fitted using a four-parameter nonlinear regression curve-fitting program and the IC₅₀ concentrations were determined (KaleidaGraph, Synergy Software, Reading, Pa.).

[4] = molecular target: Cynomologus Monkey Bv8 (Genentech; PUR21590) (cynomolgus monkey); assay: SPR, BIAcore-3000, Bv8 coupled to CM5 chip, IgG (FIG. 21)
[5] = molecular target: T1, recombinant human Bv8 (PeproTech); assay: as above
Description: as §1

[6] = molecular target: Cynomologus Monkey Bv8 (Genentech; PUR21590) (cynomolgus monkey); assay: SPR (BIAcore 3000, 25 C): cynomolgus monkey Bv8 coupled to CM5 chip, IgG injected; 1:1 Langmuir fit; remark: listed apart in the source
[7] = molecular target: T1, recombinant human Bv8 (PeproTech); assay: SPR (BIAcore 3000, 25 C): human Bv8 coupled to CM5 chip, IgG injected; 1:1 Langmuir fit; remark: listed apart in the source
Description: as §1

[8] = molecular target: Cynomologus Monkey Bv8 (Genentech; PUR21590) (cynomolgus monkey); assay: SPR (BIAcore 3000, 25 C): cynomolgus monkey Bv8 coupled to CM5 chip, IgG injected; 1:1 Langmuir fit; off-rate followed for 30 min
[9] = molecular target: T1, recombinant human Bv8 (PeproTech); assay: SPR (BIAcore 3000, 25 C): human Bv8 coupled to CM5 chip, IgG injected; 1:1 Langmuir fit; off-rate followed for 30 min
Description: as §1

[10] = molecular target: T1, recombinant human Bv8 (PeproTech); assay: as above; remark: listed apart in the source
Description: as §1

[11] = molecular target: Cynomologus Monkey Bv8 (Genentech; PUR21590) (cynomolgus monkey); assay: SPR (BIAcore 3000, 25 C): cynomolgus monkey Bv8 coupled to CM5 chip, Fab injected; 1:1 Langmuir fit
[12] = molecular target: T1, recombinant human Bv8 (PeproTech); assay: SPR (BIAcore 3000, 25 C): human Bv8 coupled to CM5 chip, Fab injected; 1:1 Langmuir fit
Description: as §1

[13] = molecular target: T1, recombinant human Bv8 (PeproTech); assay: SPR (BIAcore 3000, 25 C): human Bv8 coupled to CM5 chip, Fab injected; 1:1 Langmuir fit; N=3
Description: as §1

[14] = molecular target: T1, recombinant human Bv8 (PeproTech); assay: phage competition ELISA: Fab-displaying phage preincubated with serially diluted soluble human Bv8 (the concentration on the axis), unbound phage captured on plate-coated human Bv8, anti-M13-HRP; bound phage in %
Protocol: (§2) MAXISORP™ microtiter plates were coated with recombinant human Bv8 (PeproTech) at 2 μg/ml in PBS overnight and then blocked with PBST buffer (0.5% BSA and 0.05% Tween 20 in PBS) for an hour at room temperature (RT). Phage from culture supernatants were incubated with serially diluted human Bv8 in PBST buffer in a tissue-culture microtiter plate for an hour at RT, after which 80 μl of the mixture was transferred to the target-coated wells for 15 minutes to capture unbound phage. The plate was washed with PBT buffer (0.05% Tween 20 in PBS), and HRP-conjugated anti-M13 (Amersham Pharmacia Biotech) was added (1:5000 in PBST buffer) for 40 minutes. The plate was washed with PBT buffer and developed by adding tetramethylbenzidine substrate (Kirkegaard and Perry Laboratories, Gaithersburg, Md.). The absorbance at 450 nm was plotted as a function of target concentration in solution to determine phage IC₅₀.

[15] = molecular target: T1, recombinant human Bv8 (PeproTech); assay: as above; remark: listed apart in the source
Protocol: as §2

Kd [1]: 0.03 nM
koff [1]: 1.5e-05 s⁻¹
kon [1]: 454000 M⁻¹ s⁻¹
Kd [2]: 0.02 nM
koff [2]: 1.2e-05 s⁻¹
kon [2]: 528000 M⁻¹ s⁻¹
IC50 [3]: 0.084 nM
B1: h2G9.K4G1.Polish IgG (antibody, V domains shown)
VH: EVQLVQSGAEVKKPGASVKVSCKASGYSFTDYDMHWVRQAPGQGLEWIGYISSYSGATTYNQKFKGRVTITVDKSTSTAYLELSSLRSEDTAVYYCARDSNYGEAYAMDYWGQGTLVTVSS
VL: DIVMTQSPDSLAVSLGERATINCKASQSVDYSGDSYMNWYQQKPGQPPKLLIYAASNLESGVPDRFSGSGSGTDFTLTISSLQAEDVAVYYCQQINEDPFTFGQGTKVEIK
notes: IgG; constant regions not described for the humanized antibodies; also called parental polished K4G1 molecule

fold tighter binding than chimeric 2G9 [4]: > 2 fold
fold tighter binding than chimeric 2G9 [5]: ≥ 2 fold
kon [6]: 780000 M⁻¹ s⁻¹
kon [1]: 775000 M⁻¹ s⁻¹
kon [7]: 950000 M⁻¹ s⁻¹
kon [2]: 945000 M⁻¹ s⁻¹
Kd [8]: < 0.006 nM
koff [8]: < 5e-06 s⁻¹
Kd [9]: ≤ 0.005 nM
koff [9]: ≤ 5e-06 s⁻¹
Kd [10]: ≤ 0.005 nM
koff [10]: ≤ 5e-06 s⁻¹
IC50 [3]: 0.013 nM
B2: h2G9.K4G1.v55 IgG (antibody, V domains shown)
VH: B1 VH
VL: DIVMTQSPDSLAVSLGERATINCKASQSLDYYHYSYMNWYQQKPGQPPKLLIYAASNRESGVPDRFSGSGSGTDFTLTISSLQAEDVAVYYCQQINEDPFTFGQGTKVEIKR
notes: Variable domains only; IgG, constant regions not described; claims 8 and 9); also called humanized 2G9 variant 55

fold tighter binding than chimeric 2G9 [4]: > 2 fold
fold tighter binding than chimeric 2G9 [5]: ≥ 2 fold
kon [1]: 501000 M⁻¹ s⁻¹
kon [7]: 760000 M⁻¹ s⁻¹
kon [2]: 760000 M⁻¹ s⁻¹
Kd [8]: < 0.009 nM
koff [8]: < 5e-06 s⁻¹
Kd [9]: ≤ 0.007 nM
koff [9]: ≤ 5e-06 s⁻¹
Kd [10]: ≤ 0.007 nM
koff [10]: ≤ 5e-06 s⁻¹
IC50 [3]: 0.014 nM
B6: h2G9.K4G1.v19 IgG (antibody, V domains shown)
VH: B1 VH with F29L, D31N, S52H, A57S, T59L
VL: B2 VL with L29V, Y32S, H33G, Y34D, R58L
notes: Variable domains only; IgG, constant regions not described; claims 6 and 7); also called humanized 2G9 variant 19

Kd [11]: 0.1 nM
koff [11]: 2.8e-05 s⁻¹
kon [11]: 267000 M⁻¹ s⁻¹
Kd [12]: 0.04 nM
koff [12]: 1.6e-05 s⁻¹
kon [12]: 359000 M⁻¹ s⁻¹
Kd [13]: 0.08 nM
koff [13]: 3.8e-05 s⁻¹
kon [13]: 471000 M⁻¹ s⁻¹
IC50 (read off the curve) [15]: ~0.09 nM
B7: h2G9.K4G1.v19 Fab (Fab, V domains shown)
VH: B1 VH with F29L, D31N, S52H, A57S, T59L
VL: B2 VL with L29V, Y32S, H33G, Y34D, R58L
notes: Variable domains only; claims 6 and 7)

The remaining lines, values behind:

B3: h2G9.K4G1 (antibody, V domains shown)
VH: B1 VH with S53C, S55N, S100G
VL: B1 VL with S32D
notes: also called h2G9.K4G1 anti-Bv8 antibody
IC50 [3]: 0.984 nM

B4: h2G9.K4G1.v55 Fab (Fab, V domains shown)
VH: B1 VH
VL: B2 VL
notes: Variable domains only; claims 8 and 9)
Kd [11]: 0.42 nM
koff [11]: 0.000129 s⁻¹
kon [11]: 310000 M⁻¹ s⁻¹
Kd [12]: 0.18 nM
koff [12]: 7.2e-05 s⁻¹
kon [12]: 396000 M⁻¹ s⁻¹
Kd [13]: 0.28 nM
koff [13]: 0.000136 s⁻¹
kon [13]: 484000 M⁻¹ s⁻¹
IC50 (read off the curve) [14]: ~0.06 nM

B5: h2G9.K4G1.Polish Fab (Fab, V domains shown)
VH: B1 VH
VL: B1 VL
notes: also called polished K4G1
Kd [13]: 1.44 nM
koff [13]: 0.000689 s⁻¹
kon [13]: 475000 M⁻¹ s⁻¹
IC50 (read off the curve) [15]: ~0.2 nM
IC50 (read off the curve) [14]: ~0.2 nM

B8: h2G9.K4G1 variant CDR-L1 G29S (Fab, V domains shown)
VH: B1 VH with S53C, S55N, S100G
VL: B1 VL with S32D, G33S
IC50 (read off the curve) [14]: ~1 nM
